From the supplement of paper PMC5998384

Assays:
HeLa Kyoto [1] = assay: solubility in G1/S (NP-40 vs SDS abundance) (log2 ratio); higher = more soluble; conditions: cell cycle stage: G1/S
HeLa Kyoto [2] = assay: melting temperature (median over replicates), in situ; higher = more thermally stable
HeLa Kyoto [3] = assay: solubility change mitosis vs G1/S (difference of NP-40 vs SDS log2 ratios) (log2 ratio difference); higher = more soluble in mitosis
HeLa Kyoto [4] = assay: thermal stability score vs G1/S (z-score of summed log2 fold changes over temperatures); higher = more thermally stable than in G1/S
[5] = cell cycle stage: early G1 (4.5 h after nocodazole release)
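For melting temperature (median over replicates), in situ in this document: HeLa Kyoto cells synchronized by double thymidine or nocodazole block, proteins quantified by TMT10plex mass spectrometry, three independent biological replicates.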
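For solubility change mitosis vs G1/S (difference of NP-40 vs SDS log2 ratios) in this document: synchronized HeLa Kyoto cells (double thymidine block for G1/S, nocodazole release for mitosis), protein amounts in NP-40 versus SDS lysates quantified by mass spectrometry, three biological replicates.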
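For solubility in G1/S (NP-40 vs SDS abundance) in this document: HeLa Kyoto cells arrested at G1/S by double thymidine block, proteins quantified by TMT10plex mass spectrometry in mild NP-40 versus SDS extracts, three biological replicates.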
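For thermal stability score vs G1/S (z-score of summed log2 fold changes over temperatures) in this document: synchronized HeLa Kyoto cells, proteins quantified by TMT10plex mass spectrometry, three biological replicates, mitosis taken 0.5 h after nocodazole release, G1/S directly after double thymidine block.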

Sequence	solubility in G1/S (log2) (HeLa Kyoto [1])	melting temperature (HeLa Kyoto [2]; cell cycle stage: G1/S) [°C]	melting temperature (HeLa Kyoto [2]; cell cycle stage: mitosis) [°C]	solubility change mitosis (log2) (HeLa Kyoto [3])	thermal stability score (HeLa Kyoto [4]; [5])	thermal stability score (HeLa Kyoto [4]; cell cycle stage: mitosis)
MAGVSFSGHRLELLAAYEEVIREESAADWALYTYEDGSDDLKLAASGEGGLQELSGHFENQKVMYGFCSVKDSQAALPKYVLINWVGEDVPDARKCACASHVAKVAEFFQGVDVIVNASSVEDIDAGAIGQRLSNGLARLSSPVLHRLRLREDENAEPVGTTYQKTDAAVEMKRINREQFWEQAKKEEELRKEEERKKALDERLRFEQERMEQERQEQEERERRYREREQQIEEHRRKQQTLEAEEAKRRLKEQSIFGDHRDEEEETHMKKSESEVEEAAAIIAQRPDNPREFFKQQERVASASAGSCDVPSPFNHRPGSHLDSHRRMAPTPIPTRSPSDSSTASTPVAEQIERALDEVTSSQPPPLPPPPPPAQETQEPSPILDSEETRAAAPQAWAGPMEEPPQAQAPPRGPGSPAEDLMFMESAEQAVLAAPVEPATADATEIHDAADTIETDTATADTTVANNVPPAATSLIDLWPGNGEGASTLQGEPRAPTPPSGTEVTLAEVPLLDEVAPEPLLPAGEGCATLLNFDELPEPPATFCDPEEVEGESLAAPQTPTLPSALEELEQEQEPEPHLLTNGETTQKEGTQASEGYFSQSQEEEFAQSEELCAKAPPPVFYNKPPEIDITCWDADPVPEEEEGFEGGD [DBN1]	-1.2	52.3	52.1	0.101	-3.76	-0.742
MAETLSGLGDSGAAGAAALSSASSETGTRRLSDLRVIDLRAELRKRNVDSSGNKSVLMERLKKAIEDEGGNPDEIEITSEGNKKTSKRSSKGRKPEEEGVEDNGLEENSGDGQEDVETSLENLQDIDIMDISVLDEAEIDNGSVADCVEDDDADNLQESLSDSRELVEGEMKELPEQLQEHAIEDKETINNLDTSSSDFTILQEIEEPSLEPENEKILDILGETCKSEPVKEESSELEQPFAQDTSSVGPDRKLAEEEDLFDSAHPEEGDLDLASESTAHAQSSKADSLLAVVKREPAEQPGDGERTDCEPVGLEPAVEQSSAASELAEASSEELAEAPTEAPSPEARDSKEDGRKFDFDACNEVPPAPKESSTSEGADQKMSSPEDDSDTKRLSKEEKGRSSCGRNFWVSGLSSTTRATDLKNLFSKYGKVVGAKVVTNARSPGARCYGFVTMSTAEEATKCINHLHKTELHGKMISVEKAKNEPVGKKTSDKRDSDGKKEKSSNSDRSTNLKRDDKCDRKDDAKKGDDGSGEKSKDQDDQKPGPSERSRATKSGSRGTERTVVMDKSKGVPVISVKTSGSKERASKSQDRKSASREKRSVVSFDKVKEPRKSRDSESHSRVRERSEREQRMQAQWEREERERLEIARERLAFQRQRLERERMERERLERERMHVEHERRREQERIHREREELRRQQELRYEQERRPAVRRPYDLDRRDDAYWPEAKRAALDERYHSDFNRQDRFHDFDHRDRGRYPDHSVDRREGSRSMMGEREGQHYPERHGGPERHGRDSRDGWGGYGSDKRMSEGRGLPPPPRRDWGDHGRREDDRSWQGTADGGMMDRDHKRWQGGERSMSGHSGPGHMMNRGGMSGRGSFAPGGASRGHPIPHGGMQGGFGGQSRGSRPSDARFTRRY [SAFB]	-0.896	50	50.5	0.541	0.453	0.986
MAAAEEEPKPKKLKVEAPQALRENILFGMGNPLLDISAVVDKDFLDKYSLKPNDQILAEDKHKELFDELVKKFKVEYHAGGSTQNSIKVAQWMIQQPHKAATFFGCIGIDKFGEILKRKAAEAHVDAHYYEQNEQPTGTCAACITGDNRSLIANLAAANCYKKEKHLDLEKNWMLVEKARVCYIAGFFLTVSPESVLKVAHHASENNRIFTLNLSAPFISQFYKESLMKVMPYVDILFGNETEAATFAREQGFETKDIKEIAKKTQALPKMNSKRQRIVIFTQGRDDTIMATESEVTAFAVLDQDQKEIIDTNGAGDAFVGGFLSQLVSDKPLTECIRAGHYAASIIIRRTGCTFPEKPDFH [ADK]	0.242	56.3	56.9	-0.112	1.79	2.86
MFHLRTCAAKLRPLTASQTVKTFSQNRPAAARTFQQIRCYSAPVAAEPFLSGTSSNYVEEMYCAWLENPKSVHKSWDIFFRNTNAGAPPGTAYQSPLPLSRGSLAAVAHAQSLVEAQPNVDKLVEDHLAVQSLIRAYQIRGHHVAQLDPLGILDADLDSSVPADIISSTDKLGFYGLDESDLDKVFHLPTTTFIGGQESALPLREIIRRLEMAYCQHIGVEFMFINDLEQCQWIRQKFETPGIMQFTNEEKRTLLARLVRSTRFEEFLQRKWSSEKRFGLEGCEVLIPALKTIIDKSSENGVDYVIMGMPHRGRLNVLANVIRKELEQIFCQFDSKLEAADEGSGDVKYHLGMYHRRINRVTDRNITLSLVANPSHLEAADPVVMGKTKAEQFYCGDTEGKKVMSILLHGDAAFAGQGIVYETFHLSDLPSYTTHGTVHVVVNNQIGFTTDPRMARSSPYPTDVARVVNAPIFHVNSDDPEAVMYVCKVAAEWRSTFHKDVVVDLVCYRRNGHNEMDEPMFTQPLMYKQIRKQKPVLQKYAELLVSQGVVNQPEYEEEISKYDKICEEAFARSKDEKILHIKHWLDSPWPGFFTLDGQPRSMSCPSTGLTEDILTHIGNVASSVPVENFTIHGGLSRILKTRGEMVKNRTVDWALAEYMAFGSLLKEGIHIRLSGQDVERGTFSHRHHVLHDQNVDKRTCIPMNHLWPNQAPYTVCNSSLSEYGVLGFELGFAMASPNALVLWEAQFGDFHNTAQCIIDQFICPGQAKWVRQNGIVLLLPHGMEGMGPEHSSARPERFLQMCNDDPDVLPDLKEANFDINQLYDCNWVVVNCSTPGNFFHVLRRQILLPFRKPLIIFTPKSLLRHPEARSSFDEMLPGTHFQRVIPEDGPAAQNPENVKRLLFCTGKVYYDLTRERKARDMVGQVAITRIEQLSPFPFDLLLKEVQKYPNAELAWCQEEHKNQGYYDYVKPRLRTTISRAKPVWYAGRDPAAAPATGNKKTHLTELQRLLDTAFDLDVFKNFS [OGDH]	0.0621	52	51.7	-0.178	-0.752	-1.63
